Sequences and labels used below:
B1: Example 603 (peptide)
chain: YXQGTXTSDXXILLDXKAQXXFIEYLIEGGPSSGEPPPEGSEE
modifications: non-natural residues, acylated Lys ((γGlu)2-C18 diacid), C-terminal amide; synthetic construct; SITE 2: note = 2-Aminoisobutyric Acid; SITE 6: note = alpha-methyl-2-fluoro-L-phenylalanine; SITE 10: note = 3-(4-Pyridyl)-L-alanine; SITE 11: note = alpha-methyl-L-serine; SITE 16: note = L-ornithine; SITE 17: note = Lysine is chemically modified through conjugation of the epsi
B2: Example 606 (peptide)
chain: B1 chain with S41E
modifications: Lys acylated (γ-Glu)2-C18 diacid; non-natural residues; C-terminal amide; synthetic construct; SITE 2: note = 2-Aminoisobutyric Acid; SITE 6: note = alpha-methyl-2-fluoro-L-phenylalanine; SITE 10: note = 3-(4-Pyridyl)-L-alanine; SITE 11: note = alpha-methyl-L-serine; SITE 16: note = L-ornithine; SITE 17: note = Lysine is chemically modified through conjugation of the epsi
B3: Example 605 (peptide)
chain: B1 chain with S41G
modifications: Aib, αMeF(2F), 4Pal, αMeS, Orn; acylated lysine; amide; synthetic construct; SITE 2: note = 2-Aminoisobutyric Acid; SITE 6: note = alpha-methyl-2-fluoro-L-phenylalanine; SITE 10: note = 3-(4-Pyridyl)-L-alanine; SITE 11: note = alpha-methyl-L-serine; SITE 16: note = L-ornithine; SITE 17: note = Lysine is chemically modified through conjugation of the epsi
B4: Example 604 (peptide)
chain: B1 chain with S41A
modifications: non-natural residues; Lys acylated C18 diacid; C-terminal amide; synthetic construct; SITE 2: note = 2-Aminoisobutyric Acid; SITE 6: note = alpha-methyl-2-fluoro-L-phenylalanine; SITE 10: note = 3-(4-Pyridyl)-L-alanine; SITE 11: note = alpha-methyl-L-serine; SITE 16: note = L-ornithine; SITE 17: note = Lysine is chemically modified through conjugation of the epsi
B5: Example 607 (peptide)
chain: YXQGTXTSDXSILLDKKAQXAFIEYLEEGGPSSGEPPPSGTGE
modifications: Aib, αMeF(2F), 4Pal; acylated K; C-terminal amide; synthetic construct; SITE 2: note = 2-Aminoisobutyric Acid; SITE 6: note = alpha-methyl-2-fluoro-L-phenylalanine; SITE 10: note = 3-(4-Pyridyl)-L-alanine; SITE 17: note = Lysine is chemically modified through conjugation of the epsilon-amino group of the Lysine side chain with (gamma-Glu)2-CO-(CH2)1
B6: Example 611 (peptide)
chain: B5 chain with E35A, T41E, G42E
modifications: non-natural residues; Lys acylated C18 diacid; C-terminal amide; synthetic construct; SITE 2: note = 2-Aminoisobutyric Acid; SITE 6: note = alpha-methyl-2-fluoro-L-phenylalanine; SITE 10: note = 3-(4-Pyridyl)-L-alanine; SITE 17: note = Lysine is chemically modified through conjugation of the epsilon-amino group of the Lysine side chain with (gamma-Glu)2-CO-(CH2)1
B7: Example 610 (peptide)
chain: B5 chain with E35A, T41S, G42E
modifications: Aib, αMeF(2F), 4Pal; lysine acylated C18 diacid; amide; synthetic construct; SITE 2: note = 2-Aminoisobutyric Acid; SITE 6: note = alpha-methyl-2-fluoro-L-phenylalanine; SITE 10: note = 3-(4-Pyridyl)-L-alanine; SITE 17: note = Lysine is chemically modified through conjugation of the epsilon-amino group of the Lysine side chain with (gamma-Glu)2-CO-(CH2)1
B8: Example 609 (peptide)
chain: B5 chain with E35A, G42E
modifications: non-natural residues (Aib, αMeF(2F), 4Pal); lipidated Lys; C-amide; synthetic construct; SITE 2: note = 2-Aminoisobutyric Acid; SITE 6: note = alpha-methyl-2-fluoro-L-phenylalanine; SITE 10: note = 3-(4-Pyridyl)-L-alanine; SITE 17: note = Lysine is chemically modified through conjugation of the epsilon-amino group of the Lysine side chain with (gamma-Glu)2-CO-(CH2)1
B9: Example 620 (peptide)
chain: B5 chain with E35A, T41A
modifications: Aib, αMeF(2F), 4Pal; acylated K; C-terminal amide; synthetic construct; SITE 2: note = 2-Aminoisobutyric Acid; SITE 6: note = alpha-methyl-2-fluoro-L-phenylalanine; SITE 10: note = 3-(4-Pyridyl)-L-alanine; SITE 17: note = Lysine is chemically modified through conjugation of the epsilon-amino group of the Lysine side chain with (gamma-Glu)2-CO-(CH2)1
B10: Example 612 (peptide)
chain: B5 chain with E35A, T41G, G42E
modifications: Aib, alpha-methyl-2F-Phe, 4Pal, lipidated Lys, amide; synthetic construct; SITE 2: note = 2-Aminoisobutyric Acid; SITE 6: note = alpha-methyl-2-fluoro-L-phenylalanine; SITE 10: note = 3-(4-Pyridyl)-L-alanine; SITE 17: note = Lysine is chemically modified through conjugation of the epsilon-amino group of the Lysine side chain with (gamma-Glu)2-CO-(CH2)1
B11: Example 608 (peptide)
chain: B5 chain with G42E
modifications: non-natural residues, acylated Lys ((γGlu)2-C18 diacid), C-terminal amide; synthetic construct; SITE 2: note = 2-Aminoisobutyric Acid; SITE 6: note = alpha-methyl-2-fluoro-L-phenylalanine; SITE 10: note = 3-(4-Pyridyl)-L-alanine; SITE 17: note = Lysine is chemically modified through conjugation of the epsilon-amino group of the Lysine side chain with (gamma-Glu)2-CO-(CH2)1

Changes are numbered by the printed parent chain.

The target of the first experiment is human glucagon receptor (human) (UniProt P47871). The experiment is described as follows: cell-based or functional assay.
Sequence of human glucagon receptor (human) (P47871 26-477): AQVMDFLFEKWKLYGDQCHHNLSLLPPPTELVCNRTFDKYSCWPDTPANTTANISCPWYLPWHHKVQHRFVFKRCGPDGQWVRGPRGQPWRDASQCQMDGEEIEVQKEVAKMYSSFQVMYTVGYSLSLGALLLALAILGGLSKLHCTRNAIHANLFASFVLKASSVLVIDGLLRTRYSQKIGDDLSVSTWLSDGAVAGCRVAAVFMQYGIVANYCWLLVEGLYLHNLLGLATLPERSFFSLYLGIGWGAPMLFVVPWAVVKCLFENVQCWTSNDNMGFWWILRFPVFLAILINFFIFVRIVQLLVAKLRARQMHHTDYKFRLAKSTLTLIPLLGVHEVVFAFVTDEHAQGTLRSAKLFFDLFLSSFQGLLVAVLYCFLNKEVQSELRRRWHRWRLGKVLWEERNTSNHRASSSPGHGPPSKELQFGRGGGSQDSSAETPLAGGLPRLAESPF
Take B1: the Relative cAMP EC50 is 5.43 nM and the cAMP Rel EC50 (in the presence of 1% HSA) came out at 419 nM.

Regarding B2, the Relative cAMP EC50 was 5.01 nM and the cAMP Rel EC50 (in the presence of 1% HSA) worked out at 474 nM.

Regarding B3, the Relative cAMP EC50 turned out to be 5.49 nM and the cAMP Rel EC50 (in the presence of 1% HSA) was 353 nM.

With B4, the Relative cAMP EC50 turned out to be 5.5 nM and the cAMP Rel EC50 (in the presence of 1% HSA) was 427 nM.

For B5, the Relative cAMP EC50 was determined as 8.91 nM and the cAMP Rel EC50 (in the presence of 1% HSA) stood at 565 nM.

As to B6, the Relative cAMP EC50 is 6.8 nM and the cAMP Rel EC50 (in the presence of 1% HSA) stood at 627 nM.

B7: the Relative cAMP EC50 is 5.75 nM and the cAMP Rel EC50 (in the presence of 1% HSA) was found to be 536 nM.

B8: the Relative cAMP EC50 was 6.46 nM and the cAMP Rel EC50 (in the presence of 1% HSA) was determined as 647 nM.

On to B9, for which the Relative cAMP EC50 was found to be 8.26 nM and the cAMP Rel EC50 (in the presence of 1% HSA) was 665 nM.

For B10, the Relative cAMP EC50 is 7.13 nM and the cAMP Rel EC50 (in the presence of 1% HSA) came out at 640 nM.

As for B11, the Relative cAMP EC50 is 7.82 nM and the cAMP Rel EC50 (in the presence of 1% HSA) is 669 nM.

For the next experiment, the target named is T1, human GIP receptor (human) (UniProt P48546).
T1 sequence (looked up): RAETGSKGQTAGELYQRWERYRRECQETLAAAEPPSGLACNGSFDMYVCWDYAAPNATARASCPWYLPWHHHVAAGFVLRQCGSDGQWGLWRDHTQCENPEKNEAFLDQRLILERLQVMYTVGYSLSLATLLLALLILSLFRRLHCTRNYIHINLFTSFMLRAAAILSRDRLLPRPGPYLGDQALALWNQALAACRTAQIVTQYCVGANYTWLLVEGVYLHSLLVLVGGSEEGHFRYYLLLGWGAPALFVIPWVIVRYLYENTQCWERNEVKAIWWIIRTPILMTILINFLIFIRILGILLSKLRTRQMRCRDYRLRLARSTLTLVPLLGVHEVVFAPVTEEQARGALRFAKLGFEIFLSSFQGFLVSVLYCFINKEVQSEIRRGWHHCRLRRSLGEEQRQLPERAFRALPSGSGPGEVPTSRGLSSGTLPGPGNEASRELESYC
The experiment is described as follows: cell-based or functional assay.
Turning to B1, the Relative cAMP EC50 came to 0.102 nM and the cAMP Rel EC50 (in the presence of 1% HSA) was determined as 4.99 nM.

On to B2, for which the Relative cAMP EC50 was 0.17 nM and the cAMP Rel EC50 (in the presence of 1% HSA) is 5.69 nM.

For the molecule B3, the Relative cAMP EC50 stood at 0.132 nM and the cAMP Rel EC50 (in the presence of 1% HSA) amounted to 6.69 nM.

With B4, the Relative cAMP EC50 came out at 0.161 nM and the cAMP Rel EC50 (in the presence of 1% HSA) worked out at 4.84 nM.

As to B5, the Relative cAMP EC50 was determined as 0.0879 nM and the cAMP Rel EC50 (in the presence of 1% HSA) came to 6.63 nM.

For B6, the Relative cAMP EC50 worked out at 0.126 nM and the cAMP Rel EC50 (in the presence of 1% HSA) came out at 7.35 nM.

In the case of B7, the Relative cAMP EC50 was 0.133 nM and the cAMP Rel EC50 (in the presence of 1% HSA) worked out at 7.02 nM.

In the case of B8, the Relative cAMP EC50 was determined as 0.0784 nM and the cAMP Rel EC50 (in the presence of 1% HSA) was 6.19 nM.

For the molecule B9, the Relative cAMP EC50 amounted to 0.0706 nM and the cAMP Rel EC50 (in the presence of 1% HSA) is 5.96 nM.

B10: the Relative cAMP EC50 turned out to be 0.087 nM and the cAMP Rel EC50 (in the presence of 1% HSA) was found to be 7.58 nM.

As to B11, the Relative cAMP EC50 was 0.124 nM and the cAMP Rel EC50 (in the presence of 1% HSA) was found to be 8.51 nM.

In a further experiment the target is hGLP-1R (Homo sapiens, UniProt P43220). The experiment is described as follows: cell-based or functional assay.
Sequence of hGLP-1R (P43220 24-463): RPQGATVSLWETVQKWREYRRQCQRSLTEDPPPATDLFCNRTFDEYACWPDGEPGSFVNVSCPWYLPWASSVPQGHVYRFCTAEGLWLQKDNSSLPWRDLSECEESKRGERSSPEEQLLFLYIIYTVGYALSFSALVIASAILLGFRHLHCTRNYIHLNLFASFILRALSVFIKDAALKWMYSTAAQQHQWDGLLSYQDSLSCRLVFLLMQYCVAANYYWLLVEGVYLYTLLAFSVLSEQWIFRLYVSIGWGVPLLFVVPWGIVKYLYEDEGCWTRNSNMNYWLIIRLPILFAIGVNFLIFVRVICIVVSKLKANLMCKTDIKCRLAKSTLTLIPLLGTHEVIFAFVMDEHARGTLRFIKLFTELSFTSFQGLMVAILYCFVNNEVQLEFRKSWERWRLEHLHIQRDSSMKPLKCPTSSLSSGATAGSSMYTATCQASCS
Regarding B1, the Relative cAMP EC50 turned out to be 0.688 nM and the cAMP Rel EC50 (in the presence of 1% HSA) is 49.5 nM.

For B2, the Relative cAMP EC50 amounted to 0.786 nM and the cAMP Rel EC50 (in the presence of 1% HSA) worked out at 53.1 nM.

As for B3, the Relative cAMP EC50 came out at 0.795 nM and the cAMP Rel EC50 (in the presence of 1% HSA) is 56.2 nM.

For the molecule B4, the Relative cAMP EC50 is 0.705 nM and the cAMP Rel EC50 (in the presence of 1% HSA) was determined as 51 nM.

As to B5, the Relative cAMP EC50 was determined as 1.15 nM and the cAMP Rel EC50 (in the presence of 1% HSA) is 139 nM.

For B6, the Relative cAMP EC50 was determined as 1.63 nM and the cAMP Rel EC50 (in the presence of 1% HSA) is 146 nM.

With B7, the Relative cAMP EC50 is 1.66 nM and the cAMP Rel EC50 (in the presence of 1% HSA) turned out to be 130 nM.

Turning to B8, the Relative cAMP EC50 stood at 1.07 nM and the cAMP Rel EC50 (in the presence of 1% HSA) came to 121 nM.

For the molecule B9, the Relative cAMP EC50 came to 0.981 nM and the cAMP Rel EC50 (in the presence of 1% HSA) turned out to be 90.7 nM.

On to B10, for which the Relative cAMP EC50 is 1.21 nM and the cAMP Rel EC50 (in the presence of 1% HSA) turned out to be 126 nM.

For the molecule B11, the Relative cAMP EC50 worked out at 1.87 nM and the cAMP Rel EC50 (in the presence of 1% HSA) is 201 nM.

Source of the values: US20240270821A1, “GIP/GLP1/GCG TRI-RECEPTOR AGONISTS AND USES THEREOF” (priority 2023, published 2024).
